In test [1] the target is T1, Staphylococcus aureus manganese transporter protein MntC, wild type, recombinant (Staphylococcus aureus).
T1 construct: also called wild type MntC; full length MntC; source: recombinant; cloning, expression and purification previously described [3]
T1 chain: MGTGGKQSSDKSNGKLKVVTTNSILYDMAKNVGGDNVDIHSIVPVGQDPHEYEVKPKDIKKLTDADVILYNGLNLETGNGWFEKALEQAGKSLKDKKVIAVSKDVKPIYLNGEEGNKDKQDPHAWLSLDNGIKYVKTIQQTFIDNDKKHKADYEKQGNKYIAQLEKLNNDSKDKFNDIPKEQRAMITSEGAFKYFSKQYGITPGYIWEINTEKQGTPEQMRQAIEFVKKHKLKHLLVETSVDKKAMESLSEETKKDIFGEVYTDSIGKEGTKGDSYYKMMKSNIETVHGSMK
The test is described as follows: ITC. To be noted: both partners purified.

In test [2] the target is T2, Histidine-tagged wild-type MntC (pET-19b) (Staphylococcus aureus).
T2 construct: source: E. coli BL21(DE3), purified (HisPur Ni-NTA Agarose, size-exclusion chromatography); not shown: His-tag, N-terminal, kept
T2 chain: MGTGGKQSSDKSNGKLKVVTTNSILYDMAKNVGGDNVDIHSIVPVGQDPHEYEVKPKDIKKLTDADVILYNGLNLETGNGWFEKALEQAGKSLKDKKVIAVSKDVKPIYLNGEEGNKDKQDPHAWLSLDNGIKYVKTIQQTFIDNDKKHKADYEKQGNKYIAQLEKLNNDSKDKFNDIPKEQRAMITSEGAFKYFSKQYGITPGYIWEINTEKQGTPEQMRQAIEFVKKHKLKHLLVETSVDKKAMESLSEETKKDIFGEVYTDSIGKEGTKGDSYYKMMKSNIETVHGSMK
The test is described as follows: BLI. The conditions noted are these: both partners purified.

B1: monoclonal antibody mAB 305-78-7 (intact antibody, interference group 2) (antibody, V domains shown)
VH: QVQLQQSGAELARPGASVKMSCKASGYTFTRYTMHWVQQRPGQGLEWIGYINPSSDYTKYNQKFKDKATMTADKSSSTAYMQLSSLTSEDSAVYYCARKEDVGYWYFDFWGTGTTVTVSS
VL: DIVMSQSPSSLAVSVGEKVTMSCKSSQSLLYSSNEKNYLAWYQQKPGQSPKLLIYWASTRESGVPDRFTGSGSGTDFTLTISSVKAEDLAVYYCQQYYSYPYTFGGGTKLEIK
notes: source: generation previously described [3]
As for B1, in test [1], the Kd worked out at 1.2 nM and the dH is -19.9 kcal/mol. Moreover, in test [2], the dissociation constant Kd is 1.2 nM, the dissociation rate constant (koff) stood at 0.00024 s⁻¹ and the kon worked out at 220000 M⁻¹ s⁻¹.

In general, Kd refers to a measure of binding affinity in units of concentration. The term koff denotes the first-order rate constant of dissociation. The low end stands for slow dissociation, the high end for fast dissociation. For orientation: kon means the rate constant with which the complex forms. Read a low kon as slower complex formation.

For the origin of these results see publication PMC5045189, “High Resolution Mapping of Bactericidal Monoclonal Antibody Binding Epitopes on Staphylococcus aureus Antigen MntC” (PLoS Pathogens, 2016).
